Experimental data from publication PMC8931436, “Glycosylphosphatidylinositol-anchored micronemal antigen (GAMA) interacts with the band 3 receptor to promote erythrocyte invasion by malaria parasites” (The Journal of Biological Chemistry, 2022).

T1: ANK1-F2 (ankyrin 1 membrane-binding domain fragment 2, aa 250–568) (human, UniProt P16157 250-568)
T1 construct: amplified from cDNA of human reticulocyte mRNA; also called HA-ANK1-F2; HA-tagged ANK1-F2; source: E. coli BL21 (DE3) pLysS, pET30a, purified; not shown: HA, C-terminal, kept
T1 sequence (looked up): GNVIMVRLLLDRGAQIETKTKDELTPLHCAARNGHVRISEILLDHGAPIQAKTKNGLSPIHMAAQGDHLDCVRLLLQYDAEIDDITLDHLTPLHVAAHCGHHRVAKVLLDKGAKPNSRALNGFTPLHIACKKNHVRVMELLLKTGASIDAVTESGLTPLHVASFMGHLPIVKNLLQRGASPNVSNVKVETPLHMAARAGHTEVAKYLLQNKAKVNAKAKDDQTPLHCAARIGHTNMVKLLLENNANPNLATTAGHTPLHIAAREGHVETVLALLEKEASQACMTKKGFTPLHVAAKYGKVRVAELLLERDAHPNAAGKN

B1: recombinant PvGAMA-F2 (P. vivax glycosylphosphatidylinositol-anchored micronemal antigen, aa 345–589) (domain or fragment)
chain: DVSVDEKGDRATTAGGNQSASVAAAAPKDAGPTVAAPNTAATLKTAASPNAAATNTAAPPNMGATSPLSNPLYGTSSLQPKDVAVLVRDLLKNTNIIKFENNEPTSQMDDEEIKKLIESSFFDLSDNTMLMRLLIKPQAAILLIIESFIMMTPSPTRDAKTYCKKALVNGQLIETSDLNAATEEDDLINEFSSRYNLFYERLKLEELREIEQNRKALKNSKGTLSVLEVANSQNAPDGKGVNGSG
notes: PvGAMA, P. vivax, PVX_088910, 771-amino acid protein; Cloned into BamH1/Xho1 sites of pET30a; further vector-encoded residues may be present; also called His-PvGAMA-F2; source: E. coli BL21 (DE3) pLysS, pET30a, purified (Ni-NTA); not shown: Flag, C-terminal, kept
B2: recombinant PfGAMA-Tr3 (P. falciparum glycosylphosphatidylinositol-anchored micronemal antigen, aa 500–715) (domain or fragment)
chain: KDIIKLLKDLIKYLHIVKFENNEPTTNIDEEGIRKLLENSFFDLNDDILIVRLLLKPQTVILTVIQSFMLMTPSPSRDAKAYCKKALINDQLVPTNDTNILSEENELVNNFSTKYVLIYEKMKLQELKEMEESKLKMKYSKTNLSALQVTNPQNNKDKNDASNKNNNPNNSSTPLIAVVTDLSGEKTEDIINNNVDIATLSVGVQNTFQGPNAKAG
notes: PfGAMA, P. falciparum, PF3D7_0828800, 738-amino acid protein; Cloned into BamH1/Xho1 sites of pET30a; further vector-encoded residues may be present; also called His-PfGAMA-Tr3; Flag-PfGAMA-Tr3; source: E. coli BL21 (DE3) pLysS, pET30a, purified (Ni-NTA); not shown: Flag, C-terminal, kept

Molecular target: T1, ANK1-F2 (ankyrin 1 membrane-binding …)
Assay: SPR; BIAcore S200, 25 °C, HBS-EP pH 7.4; ANK1-F2 immobilised on a CM5 chip, PfGAMA-Tr3 or PvGAMA-F2 injected at varying concentrations; response at equilibrium against concentration, 1:1 Langmuir model
Details: both partners purified

Binder | Kd [µM]
B1 | 13.8
B2 | 0.166
